Measurements published in patent US20200354425A1 (DONG-A ST CO., LTD., published 2020).
*1 amine or outer side, *2 acyl side, *3 side chain or, on linkers, in order; H or OH if unused. Bridges are numbered along the chain shown (N, C = ends). Where no end group is shown, it is not given here. Side-chain parts run from the residue outwards. [ ]: non-standard residue; d: D form. The star is where a group is joined. γGlu = O=C(O)[C@H](CCC(=O)[*:2])N[*:1]; Stearoyl = CCCCCCCCCCCCCCCCCC(=O)*; AEEA = NCCOCCOCC(=O)O; Aib = CC(C)(N)C(=O)O

Columns and labels:
Human glucagon receptor = Human glucagon receptor (human, UniProt P47871); test: cell-based or functional assay
Human GLP-1 receptor = Human GLP-1 receptor (human, UniProt P43220); test: cell-based or functional assay

EC50(pM), CRE-driven luciferase activity (Human glucagon receptor) [pM]	EC50(pM), CRE-driven luciferase activity (Human GLP-1 receptor) [pM]	Binder
< 10	< 10	HXQGTFTSDXSKYLDERRAKDFVQWLMNTK (Aib at position 2; Z at position 10 = Lys([(2-(2-(2-aminoethoxy)ethoxy)acetoyl)2]-[gamma glutamicacid]-[octadecanoyl]); lactam ring formed between E and K (positions 16 and 20); C-terminal amide (-NH2)) [Compound 19]
> 1000	> 1000	H[Aib]QGTFTSDKSKYLD[Aib]RRAQDFVQWLMNTK [Compound 39]
> 1000	–	H[Aib]QGTFTSK([AEEA-AEEA-γGlu-Stearoyl])YSKYLD[Aib]RRAQDFVQWLMNTK [Compound 40]
> 1000	–	HXQGTFTSDXSKYLDXRRAQDFVQWLMNTK (not fully specified; Aib at positions 2 and 16; Z at position 10 = Lys([(2-(2-(2-aminoethoxy)ethoxy)acetoyl)2]-[gammaglutamicacid]-[19-carboxypeptadecanoyl]) (so in the source)) [Compound 44]
< 10	< 10	HXQGTFTSDXSKYLDXRRAQDFVQWLMNTK (Aib at positions 2 and 16; Z at position 10 = Lys([(2-(2-(2-aminoethoxy)ethoxy)acetoyl)3]-[gamma glutamicacid]-[octadecanoyl])) [Compound 10]
< 10	< 10	H[Aib]QGTFTSDK([AEEA-AEEA-γGlu-Stearoyl])SKYLDKRRAKDFVQWLMNTK (linker 16-20 via 1,4‑phenylenebiscarbconyl) [Compound 31]
< 10	< 10	H[Aib]QGTFTSDK([AEEA-AEEA-γGlu-Stearoyl])SKYLDKRRADDFVQWLMNTK (lactam 16-20) [Compound 27]
–	< 10	H-H[Aib]QGTFTSDYSKYLDEKRAKEFVQWLMNTKC-OH (lactam 16-20; SMILES CSCC[C@H](NC(=O)[C@H](CC(C)C)NC(=O)[C@H](Cc1c[nH]c2ccccc12)NC(=O)[C@H](CCC(N)=O)NC(=O)[C@@H](NC(=O)[C@H](Cc1ccccc1)NC(=O)[C@H](CCC(=O)O)NC(=O)[C@@H]1CCCCNC(=O)CC[C@H](NC(=O)[C@H](CC(=O)O)NC(=O)[C@H](CC(C)C)NC(=O)[C@H](Cc2ccc(O)cc2)NC(=O)[C@H](CCCCN)NC(=O)[C@H](CO)NC(=O)[C@H](Cc2ccc(O)cc2)NC(=O)[C@H](CC(=O)O)NC(=O)[C@H](CO)NC(=O)[C@@H](NC(=O)[C@H](Cc2ccccc2)NC(=O)[C@@H](NC(=O)CNC(=O)[C@H](CCC(N)=O)NC(=O)C(C)(C)NC(=O)[C@@H](N)Cc2c[nH]cn2)[C@@H](C)O)[C@@H](C)O)C(=O)N[C@@H](CCCCN)C(=O)N[C@@H](CCCNC(=N)N)C(=O)N[C@@H](C)C(=O)N1)C(C)C)C(=O)N[C@@H](CC(N)=O)C(=O)N[C@H](C(=O)N[C@@H](CCCCN)C(=O)N[C@@H](CS)C(=O)O)[C@@H](C)O) [Compound 47]
< 10	< 10	H[Aib]QGTFTSDK([AEEA-AEEA-γGlu-Stearoyl])SKYLDSRRAQDFVQWLMNTK [Compound 2]
< 10	< 10	HXQGTFTSDXSKYLDERRAKDFVQWLMNTK (Aib at position 2; Z at position 10 = Lys([(2-(2-(2-aminoethoxy)ethoxy)acetoyl)4]-[gamma glutamicacid]-[octadecanoyl]); lactam ring formed between E and K (positions 16 and 20)) [Compound 25]
< 10	< 10	HXQGTFTSDXSKYLDERRAKDFVQWLMNTK (not fully specified; Aib at position 2; Z at position 10 = Lys([(2-(2-(2-aminoethoxy)ethoxy)acetoyl)2]-[gamma glutamicacid]-[octadecanoyl]); a ring formed between E and K (positions 16 and 20) via 4-aminobenzoyl cross-link) [Compound 34]
–	< 10	HSQGTFTSDXSKYLDSRRAQDFVQWLMNTK (Z at position 10 = Lys([(2-(2-(2-aminoethoxy)ethoxy)acetoyl)2]-[gamma glutamicacid]-[octadecanoyl]); C-terminal amide (-NH2)) [Compound 4]
< 10	< 10	HXQGTFTSDXSKYLDERRAKDFVQWLMNTK (Aib at position 2; Z at position 10 = Lys([(2-(2-(2-aminoethoxy)ethoxy)acetoyl)2]-[gamma glutamicacid]-[octadecanoyl]); lactam ring formed between E and K (positions 16 and 20)) [Compound 14]
< 10	< 10	HXQGTFTSDXSKYLDERRAKDFVQWLMNTK (Aib at position 2; Z at position 10 = Lys([(2-(2-(2-aminoethoxy)ethoxy)acetoyl)3]-[gamma glutamicacid]-[octadecanoyl]); lactam ring formed between E and K (positions 16 and 20)) [Compound 20]
< 10	< 10	HXQGTFTSDXSKYLDERRAKDFVQWLMNTK (not fully specified; Aib at position 2; Z at position 10 = Lys([(2-(2-(2-aminoethoxy)ethoxy)acetoyl)2]-[gamma glutamicacid]-[octadecanoyl]); a ring formed between E and K (positions 16 and 20) via leucine cross-link) [Compound 36]
< 10	< 10	HXQGTFTSDXSKYLDXRRAQDFVQWLMNTK (Aib at positions 2 and 16; Z at position 10 = Lys([(2-(2-(2-aminoethoxy)ethoxy)acetoyl)]-[gamma glutamicacid]-[octadecanoyl])) [Compound 17]
< 10	< 10	HXQGTFTSDXSKYLDERRAEDFVQWLMNTK (Aib at position 2; Z at position 10 = Lys([(2-(2-(2-aminoethoxy)ethoxy)acetoyl)2]-[gamma glutamicacid]-[octadecanoyl]); a ring formed between E and E (positions 16 and 20) via 1,4-piperazinyl cross-link) [Compound 23]
> 1000	–	HXQGTFTSDXSKYLDXRRAQDFVQWLMNTK (not fully specified; Aib at positions 2 and 16; Z at position 10 = Lys([(2-(2-(2-aminoethoxy)ethoxy)acetoyl)2]-[gammaglutamicacid]-[15-carboxypeptadecanoyl]) (so in the source)) [Compound 42]
< 10	< 10	HXQGTFTSDXSKYLDERRAEDFVQWLMNTK (Aib at position 2; Z at position 10 = Lys([(2-(2-(2-aminoethoxy)ethoxy)acetoyl)2]-[gamma glutamicacid]-[octadecanoyl]); a ring formed between E and E (positions 16 and 20) via 1,4-phenylenediamino cross-link) [Compound 29]
